Reference: patent US20090117124A1 (Pfizer, published 2009)
Positions count from the first letter of the chain named. Names may count otherwise. Each block holds one binder with its values, some of them ahead of it.

Legend:
[1] = molecular target: T1, cynomolgus monkey IgE (in cynomolgus serum, Harlan Sera-Lab Ltd) (cynomolgus monkey); test: capture ELISA, Test 1, Cyno 1
T1 construct: Serum was the source of IgE; eight serum samples; also called cynomolgus IgE; Cyno 1 to Cyno 8 serum samples
Method: (§1) Wells were washed once with 150 μL/well wash buffer (0.05% Tween-20, Sigma, Cat. No. P7949/TBS) then blocked with 150 μL/well 1% BSA (Sigma, Cat. No. A7030) in TBS for 2 hours at room temperature. Wells were washed twice with 150 μL wash buffer. 50 μL human (in-house donors) or cynomolgus serum (Harlan Sera-Lab Ltd, Loughborough) was added from neat to at least 1:16 dilution in 1% BSA/0.05% Tween-20/TBS diluent buffer. […] Wells were incubated for 2 hours at 25° C. before washing (3×150 μL wash buffer). […] Wells were incubated for 1 hour at 25° C. then washed (3×150 μL wash buffer). Streptavidin-HRP (Amersham Bioscience, Cat. No. RPN 1231) diluted 1:1000 in diluent buffer was added to all wells and incubated for 45 minutes at room temperature. Wells were washed (3×150 […] wash buffer). 50 μL OPD (Dako, Cat. No. S2045) was added to all wells and the color allowed to develop for 10 minutes before stopping the reaction with 50 μl 0.6M H₂SO₄ and the absorbance measured at 490 nm.

[2] = molecular target: T1, cynomolgus monkey IgE (in cynomolgus …); test: capture ELISA, Test 1, Cyno 2
Method: as §1

[3] = molecular target: T1, cynomolgus monkey IgE (in cynomolgus …); test: capture ELISA, Test 1, Cyno 4
Method: as §1

[4] = molecular target: T1, cynomolgus monkey IgE (in cynomolgus …); test: capture ELISA, Test 1, Cyno 5
Method: as §1

[5] = molecular target: T1, cynomolgus monkey IgE (in cynomolgus …); test: capture ELISA, Test 1, Cyno 6
Method: as §1

[6] = molecular target: T1, cynomolgus monkey IgE (in cynomolgus …); test: capture ELISA, Test 1, Cyno 7
Method: as §1

[7] = molecular target: T2, human IgA (Sigma, Cat. No. I2636) (human); test: ELISA on coated immunoglobulin
T2 chain: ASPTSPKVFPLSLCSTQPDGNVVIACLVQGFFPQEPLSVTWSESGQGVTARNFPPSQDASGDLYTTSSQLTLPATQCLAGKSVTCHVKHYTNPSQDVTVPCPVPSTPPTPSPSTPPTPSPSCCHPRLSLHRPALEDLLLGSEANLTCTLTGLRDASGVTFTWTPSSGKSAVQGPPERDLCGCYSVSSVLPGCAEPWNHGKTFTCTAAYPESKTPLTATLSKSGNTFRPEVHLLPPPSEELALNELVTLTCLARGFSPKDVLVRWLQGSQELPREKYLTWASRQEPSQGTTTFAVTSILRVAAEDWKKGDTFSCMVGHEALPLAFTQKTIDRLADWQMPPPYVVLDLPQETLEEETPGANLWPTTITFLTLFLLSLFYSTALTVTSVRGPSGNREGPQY
Method: (§2) Wells were washed 3× with 150 μL wash buffer (0.05% Tween-20 (Sigma, Cat. No. P7949)/PBS) then blocked with 150 μL/well blocking buffer (2.5% BSA (Sigma, Cat. No. A7030)/PBS) for 2 hours at room temperature. Wells were washed 3× with 150 μL wash buffer/well. […] Antibodies were diluted in diluent buffer (PBS/1% BSA/0.05% Tween-20) and this was added to blank control wells (duplicate wells for each secondary antibody used). Antibodies were incubated for 2 hours at room temperature. Wells were washed 3× with 150 μL wash buffer/well. Binding of control antibodies to immunoglobulin was detected with anti-mouse IgG-HRP conjugate (Sigma, Cat. No. A4416) diluted 1:8000 in diluent buffer. 50 μL/well was added to control antibody and blank wells. Wells were incubated for 1 hour at room temperature, then washed 3× with 150 μL wash buffer/well. 50 μl OPD (Dako, Cat. No. […] Wells were incubated for 1 hour at room temperature then washed 3× with 150 μL wash buffer/well. Streptavidin-HRP (Amersham Bioscience, Cat. No. RPN 1231) diluted 1:2000 in diluent buffer was added to all wells and incubated for 45 minutes at room temperature. Wells were washed (3×150 μL wash buffer).

[8] = molecular target: T3, human IgG1 (Biodesign, Cat. No. A50183H) (human); test: ELISA on coated immunoglobulin
T3 construct: Bought immunoglobulin coated on the plate
Method: as §2

[9] = molecular target: T4, human IgG3 (Biodesign, Cat. No. A50186H) (human); test: ELISA on coated immunoglobulin
T4 construct: Bought immunoglobulin coated on the plate
Method: as §2

[10] = molecular target: T1, cynomolgus monkey IgE (in cynomolgus …); test: capture ELISA, Test 1, Cyno 3
Method: as §1

[11] = molecular target: T1, cynomolgus monkey IgE (in cynomolgus …); test: capture ELISA, Test 2, Cyno 1
Method: as §1

[12] = molecular target: T1, cynomolgus monkey IgE (in cynomolgus …); test: capture ELISA, Test 2, Cyno 2
Method: as §1

[13] = molecular target: T1, cynomolgus monkey IgE (in cynomolgus …); test: capture ELISA, Test 2, Cyno 3
Method: as §1

[14] = molecular target: T1, cynomolgus monkey IgE (in cynomolgus …); test: capture ELISA, Test 2, Cyno 4
Method: as §1

[15] = molecular target: T1, cynomolgus monkey IgE (in cynomolgus …); test: capture ELISA, Test 2, Cyno 5
Method: as §1

[16] = molecular target: T1, cynomolgus monkey IgE (in cynomolgus …); test: capture ELISA, Test 2, Cyno 6
Method: as §1

[17] = molecular target: T1, cynomolgus monkey IgE (in cynomolgus …); test: capture ELISA, Test 2, Cyno 7
Method: as §1

[18] = molecular target: T1, cynomolgus monkey IgE (in cynomolgus …); test: capture ELISA, Test 2, Cyno 8
Method: as §1

IgE concentration detected [1]: 30 ng/mL
IgE concentration detected [2]: 0 ng/mL
IgE concentration detected [3]: 0 ng/mL
IgE concentration detected [4]: 37 ng/mL
IgE concentration detected [5]: 3 ng/mL
IgE concentration detected [6]: 0 ng/mL
A290 nm [7]: 0.04 A290 nm
A290 nm [8]: 0.07 A290 nm
A290 nm [9]: 0.05 A290 nm
B1: 5.396.1 (recombinant) (antibody, human IgG2, kappa, V domains shown)
VH: QVQLQQWGAGLLKPSETLSLTCAVYGGSFSGYYWSWIRQPPGKGLEWIGEIHHSGSTNYNPSLKSRVTISVDTSKNQFSLKLSSVTAADTAVYYCARDNWNDSFYYYYGMDVWGQGTTVTVSS
VL: DIQMTQSPSSLSASVGDRVTITCRASQGISNHLAWFQQKPGKAPKSLIYAASSLQSGVPSKFSGSGSGTDFTLTISSLQPEDFATYYCQQYNRHPFTFGPGTKVDIKR
notes: Fully human IgG2 kappa, expressed in 293 Freestyle cells; also called recombinant 5.396.1

IgE concentration detected [1]: 41 ng/mL
IgE concentration detected [2]: 0 ng/mL
IgE concentration detected [10]: 39 ng/mL
IgE concentration detected [3]: 0 ng/mL
IgE concentration detected [4]: 57 ng/mL
IgE concentration detected [5]: 0 ng/mL
IgE concentration detected [6]: 0 ng/mL
IgE concentration detected [11]: 57 ng/mL
IgE concentration detected [12]: 39 ng/mL
IgE concentration detected [13]: 53 ng/mL
IgE concentration detected [14]: 0 ng/mL
IgE concentration detected [15]: 102 ng/mL
IgE concentration detected [16]: 0 ng/mL
IgE concentration detected [17]: 0 ng/mL
IgE concentration detected [18]: 0 ng/mL
A290 nm [7]: 0.04 A290 nm
A290 nm [8]: 0.08 A290 nm
A290 nm [9]: 0.05 A290 nm
B2: 5.396.1 Hc-S103N Lc-K61R (antibody, human IgG2, kappa, V domains shown)
VH: B1 VH with S103N
VL: B1 VL with K61R
notes: Human IgG2 kappa; leader omitted; also called 5.396.1 (S103N/K61R); 5.396.1 S103N/K61R

IgE concentration detected [1]: 120 ng/mL
IgE concentration detected [2]: 91 ng/mL
IgE concentration detected [10]: 107 ng/mL
IgE concentration detected [3]: 0 ng/mL
IgE concentration detected [4]: 140 ng/mL
IgE concentration detected [5]: 0 ng/mL
IgE concentration detected [6]: 0 ng/mL
A290 nm [7]: 0.04 A290 nm
A290 nm [8]: 0.07 A290 nm
A290 nm [9]: 0.05 A290 nm
B3: 6.605.1 (recombinant) (antibody, human IgG2, kappa, V domains shown)
VH: QVHLVQSGAEVKMPGASVKVSCKASGYTFTSYGISWVRQAPGQGLEWMGWISAYNGNTNYAQKLQGRITMTTDTSTSTAYMDLRSLRSDDTAVYYCARDGDYYDPFDYWGQGTLVTVSS
VL: DIQMTQSPSSLSASVGDRVTITCRTSQSISNWLNWYQQKPGKAPKLLIYGASTLKSGVPSRFSGSESGTDFTLTISSLQPEDFATYYCQQSYSTPPTFGQGTKVEIKR
notes: Human IgG2 kappa; leader omitted; also called recombinant 6.605.1

IgE concentration detected [1]: 133 ng/mL
IgE concentration detected [2]: 103 ng/mL
IgE concentration detected [10]: 122 ng/mL
IgE concentration detected [3]: 0 ng/mL
IgE concentration detected [4]: 173 ng/mL
IgE concentration detected [6]: 0 ng/mL
A290 nm [7]: 0.04 A290 nm
A290 nm [8]: 0.07 A290 nm
A290 nm [9]: 0.04 A290 nm
B4: 6.605.1 Hc-H3Q, M13K, D82E Lc-T25A, T53S (antibody, human IgG2, kappa, V domains shown)
VH: B3 VH with H3Q, M13K, D82E
VL: B3 VL with T25A, T53S
notes: Human IgG2 kappa; leader omitted; also called 6.605.1 (H3Q, M13K, D82E-T25A, T53S); 6.605.1 QKE/AS
